Laboratory results taken from patent US20060251661A1.

Biological target: OVA peptide 257-264 (SIINFEKL) presented on MHC class I molecule K^b of antigen presenting cells (mouse; chicken)
Test: cell-based or functional assay

% of B3Z cells activated (lacZ reporter, flow cytometry); lymph node cells of mice with B16/OVA tumors injected with α-gal glycolipids: 1.07 to 3.66%
% of B3Z cells activated (lacZ reporter, flow cytometry); lymph node cells of mice with PBS treated B16/OVA tumors: 0 to 0.14%
Substance: α-β T cell receptor (TCR) of B3Z CD8+ T hybridoma cells, specific for OVA257-264 presented on K^b
